Target: mouse CD47-Fc (mouse) (UniProt Q61735)
Test: bio-light interferometry (ForteBio), antibody on AHQ tip, mouse CD47-Fc 100 nM in solution, bivalent

Hu5F9, control anti-CD47 antibody transiently expressed in 293 HEK cells, sequence (VH): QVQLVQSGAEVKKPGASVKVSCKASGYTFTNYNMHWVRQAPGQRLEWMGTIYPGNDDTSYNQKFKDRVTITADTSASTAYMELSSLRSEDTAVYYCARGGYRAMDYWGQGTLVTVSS
Hu5F9, control anti-CD47 antibody transiently expressed in 293 HEK cells, sequence (VL): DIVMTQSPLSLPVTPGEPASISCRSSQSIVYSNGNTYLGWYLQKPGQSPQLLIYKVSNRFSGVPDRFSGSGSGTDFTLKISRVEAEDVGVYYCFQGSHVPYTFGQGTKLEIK
mouse CD47-Fc (mouse), sequence (Q61735 19-140 limits assumed): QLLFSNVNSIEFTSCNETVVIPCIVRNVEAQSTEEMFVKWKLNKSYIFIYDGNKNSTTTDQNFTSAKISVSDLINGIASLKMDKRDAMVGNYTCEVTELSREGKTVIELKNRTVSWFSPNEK

Kd: 12.7 nM
Substance: Hu5F9, control anti-CD47 antibody transiently expressed in 293 HEK cells
